Measurements as given in IntAct's records for PubMed 31515488.

B1: EF-hand domain-containing family member C2 (Homo sapiens), Q5JST6 (parent)
chain: MALPLLPGNSFNRNVGKEKFHKSQHWGFCNNVMMLVSDEKPGIGGEPLLGQKIKPKCSIYPKGDGSDVPSWVAFDKQVLSFDAYLEEEVLDKSQTNYRIRYYKIYFYPEDDTIQVNEPEVKNSGLLQGTSIRRHRITLPPPDEDQFYTVYHFNVGTEVVFYGRTFKIYDCDAFTRNFLRKIGVKVNPPVQCPEDPYMKIRREVVEHVEPLRPYESLDTLKQFLQYHGKILCFFCLWDDSVSMFGDRRELILHYFLCDDTIEIKELLPHSSGRDALKMFLRRSKLPKNCPPRVYQPGQITDRAVLNSYGDFIKNQADGYLFDRYKLGKVDQEFYKDSDLSLGVTINVWGRKVLLYDCDEFTKSYYKSKYGIENFTSVSCKPPSPPPKIERKFPPYNGFGSEEDSLRNCIDLKPTPHRRNFKKFMEKDSYGSKSNILRFFAKLVTDKCVDLDRMFVISYYLGDDTISVFEPIERNSGIAGGMFLKRSRVKKPGQEVFKSELSEYIKAEELYIGVTVNVNGYLFRLLNADEYTLNYMEQNTDKYPFSNLKLALQKLKQEEGKSRELKQVFKAADSKHTNMVDYNTFRDILMSLTVGNLAEQEFVTIARHYRVPEGTCSDMDFLIALAHEKFKKNMFENFDTFIYSCVYEDREKKNVLPTKDIKRLCKSSRLPLSDDLLESLLSRFEDSEKQIDYKSFFSALNWRKNPVPELQPASYLKERCEDVWLGMPSPIPAKYIDYWTFLKDAFGLEEE
B2: Stabilizer of axonemal microtubules 1 (Homo sapiens), Q8IYX7 (parent)
chain: MKTKCICELCSCGRHHCPHLPTKIYDKTEKPCLLSEYTENYPFYHSYLPRESFKPRREYQKGPIPMEGLTTSRRDFGPHKVAPVKVHQYDQFVPSEENMDLLTTYKKDYNPYPVCRVDPIKPRDSKYPCSDKMECLPTYKADYLPWNQPRREPLRLEHKYQPASVRFDNRTTHQDDYPIKGLVKTISCKPLAMPKLCNIPLEDVTNYKMSYVAHPVEKRFVHEAEKFRPCEIPFESLTTQKQSYRGLMGEPAKSLKPLARPPGLDMPFCNTTEFRDKYQAWPMPRMFSKAPITYVPPEDRMDLLTTVQAHYTCPKGAPAQSCRPALQIKKCGRFEGSSTTKDDYKQWSSMRTEPVKPVPQLDLPTEPLDCLTTTRAHYVPHLPINTKSCKPHWSGPRGNVPVESQTTYTISFTPKEMGRCLASYPEPPGYTFEEVDALGHRIYKPVSQAGSQQSSHLSVDDSENPNQRELEVLA
partner: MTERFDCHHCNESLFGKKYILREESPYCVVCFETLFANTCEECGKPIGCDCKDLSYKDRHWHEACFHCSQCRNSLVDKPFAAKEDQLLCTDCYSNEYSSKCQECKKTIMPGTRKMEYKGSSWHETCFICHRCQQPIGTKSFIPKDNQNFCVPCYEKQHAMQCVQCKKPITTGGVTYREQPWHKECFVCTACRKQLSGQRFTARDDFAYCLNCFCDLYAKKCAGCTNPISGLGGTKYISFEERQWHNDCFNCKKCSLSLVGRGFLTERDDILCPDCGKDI
B3: Zinc finger and SCAN domain-containing protein 9 (Homo sapiens), O15535 (parent)
chain: MNTNSKEVLSLGVQVPEAWEELLTMKVEAKSHLQWQESRLKRSNPLAREIFRRHFRQLCYQETPGPREALTRLQELCYQWLRPHVSTKEQILDLLVLEQFLSILPKELQGWVREHCPESGEEAVILLEDLERELDEPQHEMVAHRHRQEVLCKEMVPLAEQTPLTLQSQPKEPQLTCDSAQKCHSIGETDEVTKTEDRELVLRKDCPKIVEPHGKMFNEQTWEVSQQDPSHGEVGEHKDRIERQWGNLLGEGQHKCDECGKSFTQSSGLIRHQRIHTGERPYECNECGKAFSRSSGLFNHRGIHNIQKRYHCKECGKVFSQSAGLIQHQRIHKGEKPYQCSQCSKSYSRRSFLIEHQRSHTGERPHQCIECGKSFNRHCNLIRHQKIHTVAELV
B4: IQ motif and ubiquitin-like domain-containing protein (Homo sapiens), Q8NA54 (parent)
chain: MSNQQEKYEAQNIVNSTEESDDAFDTVTIPVPSEEPQESDQTEEHESGIEQFSESHAIHVEEQSDQSFSSLEPDNEQLMEEVISPRQVSYTPQHHEKQYAMQRPNDDSLAFLDKIKSVKESLQESVEDSLATVKVVLIPVGQEIVIPFKVDTILKYLKDHFSHLLGIPHSVLQIRYSGKILKNNETLVQHGVKPQEIVQVEIFSTNPDLYPVRRIDGLTDVSQIITVTVQTGLDQYQQVPVEIVKSDFHKPFLGGFRHKVTGVEYHNAGTQTVPKRIPERLSIFCRDTQTVFQKKNLQQTTNTTSTQMTNIGVYVSNMTDKLVTPGKYFSAAEYHAQRLKAVIVIQTYYRQWHAKIFVENLRRQKSLRLEWETQQELRKIREKEEWIKLDYHRRHNPKTNEDFEFLYNALEFWRQEELTRINQSFTGAERKAALCELLEKETQIIASIGRHRYIAYMANQEAAIQAFLDKCSAPKIWRTPNGKTIEMDTQFTIRARELQNIYKCIMLKNISQDERLDVLLTLKHTVKEHECKLTQEILELIDREVDLMMRGVKHHNLEGLRKRIATLFFHYIKTPLFNPEVAKYLKVPQDPLKFYKKIYFCHSCQLYLPSTEFSVSSTSRRIYRCRNCINLQNEAQKRESFLKYKCLLQQLYYTEADYEDDSKIAFLMQLQDIQYLTENIWASQSVLSACDNLSDLVMVRWNKSLEWSPWNCILLTKDEAAAHLKLTSIEEGYERSFIHKIKHKHILAKNYFSQVPVLASFILDDGEIDEIRWKYHSDTTPKIIESQRPPH
partner: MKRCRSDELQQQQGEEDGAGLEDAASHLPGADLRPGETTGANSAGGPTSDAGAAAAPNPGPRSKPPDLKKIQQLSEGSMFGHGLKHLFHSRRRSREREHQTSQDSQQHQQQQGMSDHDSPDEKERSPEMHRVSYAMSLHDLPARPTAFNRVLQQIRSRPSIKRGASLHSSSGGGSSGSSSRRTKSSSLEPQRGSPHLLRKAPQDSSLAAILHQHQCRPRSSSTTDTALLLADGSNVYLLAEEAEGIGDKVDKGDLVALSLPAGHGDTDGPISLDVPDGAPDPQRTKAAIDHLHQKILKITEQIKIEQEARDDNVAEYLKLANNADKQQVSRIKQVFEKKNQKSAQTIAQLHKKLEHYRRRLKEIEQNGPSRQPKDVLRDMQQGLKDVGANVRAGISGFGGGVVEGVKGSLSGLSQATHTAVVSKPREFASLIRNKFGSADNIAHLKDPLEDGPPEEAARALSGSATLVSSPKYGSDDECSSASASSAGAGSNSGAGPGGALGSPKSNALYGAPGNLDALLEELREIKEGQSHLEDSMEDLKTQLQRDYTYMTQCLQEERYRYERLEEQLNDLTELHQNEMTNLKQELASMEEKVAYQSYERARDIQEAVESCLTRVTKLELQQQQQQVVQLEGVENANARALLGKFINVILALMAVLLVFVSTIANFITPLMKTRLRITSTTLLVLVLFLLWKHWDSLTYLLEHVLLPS
B5: PIH1 domain-containing protein 2 (Homo sapiens), Q8WWB5 (parent)
chain: METSSKGLLTQVTQFWNLLDDLAQSDPEGYEKFIQQQLKEGKQLCAAPEPQLCLQTRILKPKEKILFINLCQWTRIPAPQSTTHPVPLTVGKPEDTTEISDAYTVIDVAYNPDVLHAAEKDQVKKNQLIQMAMKCIEEKFQFTLSHSYHITKFRIKGSIQRMKQNLMGIQTDSIDLREKMRRELTLGQIRSSTMSNPDHFPQLLLPKDQVSGKAVCLIEEISSTEIQVEMKMPAYELKIVHDHSEKPLKIELKVELPGINSVSLCDLSVSEDDLLIEVSEKYRLHLNLPKLIDTEMTTAKFIKEKSTLIITMPLV
partner: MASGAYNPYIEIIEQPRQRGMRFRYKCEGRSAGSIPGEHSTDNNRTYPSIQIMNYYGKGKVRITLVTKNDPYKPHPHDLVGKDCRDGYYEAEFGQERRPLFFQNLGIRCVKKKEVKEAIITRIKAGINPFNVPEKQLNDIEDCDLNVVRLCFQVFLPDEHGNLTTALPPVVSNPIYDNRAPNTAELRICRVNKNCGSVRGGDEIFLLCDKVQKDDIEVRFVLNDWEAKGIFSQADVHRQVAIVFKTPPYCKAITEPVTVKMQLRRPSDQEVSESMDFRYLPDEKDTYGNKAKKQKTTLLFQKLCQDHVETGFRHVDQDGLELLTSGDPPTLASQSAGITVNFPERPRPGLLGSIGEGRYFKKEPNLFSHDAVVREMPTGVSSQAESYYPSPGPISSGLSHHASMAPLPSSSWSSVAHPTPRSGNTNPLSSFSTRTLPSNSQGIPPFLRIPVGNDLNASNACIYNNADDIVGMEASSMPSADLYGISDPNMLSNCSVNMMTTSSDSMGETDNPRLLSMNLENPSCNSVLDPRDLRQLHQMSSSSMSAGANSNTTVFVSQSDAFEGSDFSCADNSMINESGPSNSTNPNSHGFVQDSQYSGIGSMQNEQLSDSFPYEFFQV

Variants of: B1
Conditions: with plod3_human PLOD3, O60568
Chain of plod3_human PLOD3, O60568 (O60568 whole entry): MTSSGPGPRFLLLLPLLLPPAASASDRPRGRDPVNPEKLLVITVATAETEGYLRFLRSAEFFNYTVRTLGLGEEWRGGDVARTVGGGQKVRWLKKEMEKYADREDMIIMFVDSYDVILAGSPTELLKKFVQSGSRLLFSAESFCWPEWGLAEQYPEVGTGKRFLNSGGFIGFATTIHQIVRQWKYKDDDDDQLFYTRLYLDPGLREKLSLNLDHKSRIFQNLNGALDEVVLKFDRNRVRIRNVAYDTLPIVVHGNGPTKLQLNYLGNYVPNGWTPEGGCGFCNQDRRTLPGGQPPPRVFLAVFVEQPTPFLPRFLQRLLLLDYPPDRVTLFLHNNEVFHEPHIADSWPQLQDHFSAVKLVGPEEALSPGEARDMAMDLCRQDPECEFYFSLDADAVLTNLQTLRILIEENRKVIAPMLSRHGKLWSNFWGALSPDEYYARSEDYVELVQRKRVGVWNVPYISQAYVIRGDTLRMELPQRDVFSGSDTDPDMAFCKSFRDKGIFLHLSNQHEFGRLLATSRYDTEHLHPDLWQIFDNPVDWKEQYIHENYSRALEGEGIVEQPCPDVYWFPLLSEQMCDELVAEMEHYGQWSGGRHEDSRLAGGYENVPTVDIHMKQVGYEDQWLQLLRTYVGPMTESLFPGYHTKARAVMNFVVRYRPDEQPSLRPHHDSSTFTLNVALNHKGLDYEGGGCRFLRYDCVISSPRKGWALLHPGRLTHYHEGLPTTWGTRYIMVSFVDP

| effect of a mutation on the interaction | Variant |
| --- | --- |
| disrupting interaction strength | E507Q |

Variants of: B2
Conditions: with fhl2_human FHL2, Q14192

| effect of a mutation on the interaction | Variant |
| --- | --- |
| disrupting interaction strength | MKTKCICELCSCGRHHCPHLPTKIYDKTEKPCLLSEYTENYPFYHSYLPRESFKPRREYQKGPIPMEGLTTSRRDFGPHKVAPVKVHQYDQFVPSEENMDLLTTYKKDYNPYPVCRVGPIKPRDSKYPCSDKMECLPTYKADYLPWNQPRREPLRLEHKYQPASVRFDNRTTHQDDYPIKGLVKTISCKPLAMPKLCNIPLEDVTNYKMSYVAHPVEKRFVHEAEKFRPCEIPFESLTTQKQSYRGLMGEPAKSLKPLARPPGLDMPFCNTTEFRDKYQAWPMPRMFSKAPITYVPPEDRMDLLTTVQAHYTCPKGAPAQSCRPALQIKKCGRFEGSSTTKDDYKQWSSMRTEPVKPVPQLDLPTEPLDCLTTTRAHYVPHLPINTKSCKPHWSGPRGNVPVESQTTYTISFTPKEMGRCLASYPEPPGYTFEEVDALGHRIYKPVSQAGSQQSSHLSVDDSENPNQRELEVLA [D118G] |
| disrupting interaction strength | MKTKCICELCSCGRHHCPHLPTKIYDKTEKPCLLSEYTENYPFYHSYLPRESFKPRREYQKGPIPMEGLTTSRRDFGPHKVAPVKVHQYDQFVPSEENMDLLTTYKKDYNPYPVCRVDPIKPRDSKYPCSDKMECLPTYKADYLPWNQPRREPLRLEHKYQPASVRFDNRTTHQDDYPIKGLVKTISCKPLAMPKLCNIPLEDVTNYKMSYVAHPVEKRFVHEAEKFRPCEIPFESLTTQKQSYRGLMGEPAKSLKPLARPPGLDMPFCNTTEFRDKYQAWPMPRMFSKAPITYVPPEDRMDLLTTVQAHYTCPKGAPAQSCRPALQIKKCGRFEGSSTTKDDYKQWSSMRTEPVKPVPQLDLPTEPLDCLTTTRAHYVPHLPINTKSCKPHWSGPRGNVPVESQTTYTISFTPKEMGRCLASYPEPPGYTFEEVDALGHRIYKPVSQAGSQQSSHLSVDDSEKPNQRELEVLA [N464K] |

Variants of: B3
Conditions: with zn446_human ZNF446, Q9NWS9
Chain of zn446_human ZNF446, Q9NWS9 (Q9NWS9 whole entry): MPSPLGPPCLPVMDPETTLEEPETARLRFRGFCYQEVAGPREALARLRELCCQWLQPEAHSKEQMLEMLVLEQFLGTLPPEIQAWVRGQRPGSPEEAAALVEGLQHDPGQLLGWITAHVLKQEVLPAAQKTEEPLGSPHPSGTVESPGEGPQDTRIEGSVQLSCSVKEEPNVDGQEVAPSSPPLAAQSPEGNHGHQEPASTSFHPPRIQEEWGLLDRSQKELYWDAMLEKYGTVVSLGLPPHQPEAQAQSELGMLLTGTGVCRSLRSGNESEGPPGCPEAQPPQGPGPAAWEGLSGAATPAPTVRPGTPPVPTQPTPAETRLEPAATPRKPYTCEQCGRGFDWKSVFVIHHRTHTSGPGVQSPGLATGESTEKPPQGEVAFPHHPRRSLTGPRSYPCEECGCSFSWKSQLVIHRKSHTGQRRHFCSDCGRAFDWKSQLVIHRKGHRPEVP

| effect of a mutation on the interaction | Variant |
| --- | --- |
| with no effect | MNTNSKEVLSLGVQVPEAWEELLTMKVEAKSHLRWQESRLKRSNPLAREIFRRHFRQLCYQETPGPREALTRLQELCYQWLRPHVSTKEQILDLLVLEQFLSILPKELQGWVREHCPESGEEAVILLEDLERELDEPQHEMVAHRHRQEVLCKEMVPLAEQTPLTLQSQPKEPQLTCDSAQKCHSIGETDEVTKTEDRELVLRKDCPKIVEPHGKMFNEQTWEVSQQDPSHGEVGEHKDRIERQWGNLLGEGQHKCDECGKSFTQSSGLIRHQRIHTGERPYECNECGKAFSRSSGLFNHRGIHNIQKRYHCKECGKVFSQSAGLIQHQRIHKGEKPYQCSQCSKSYSRRSFLIEHQRSHTGERPHQCIECGKSFNRHCNLIRHQKIHTVAELV [Q34R] |

Variants of: B4
Conditions: with tmcc2_human TMCC2, O75069

| effect of a mutation on the interaction | Variant |
| --- | --- |
| with no effect | V126M |
| disrupting interaction strength | I501F |

Variants of: B5
Conditions: with rel_human REL

| effect of a mutation on the interaction | Variant |
| --- | --- |
| with no effect | METSSKGLLTQVTQFWNLLDDLAQSDPEGYEKFIQQQLKEGKQLCAAPEPQLCLQTRILKPKEKILFINLCQWTRIPAPQSTTHPVPLTVGKPEDTTEISDAYTVIDVAYNPDVLHVAEKDQVKKNQLIQMAMKCIEEKFQFTLSHSYHITKFRIKGSIQRMKQNLMGIQTDSIDLREKMRRELTLGQIRSSTMSNPDHFPQLLLPKDQVSGKAVCLIEEISSTEIQVEMKMPAYELKIVHDHSEKPLKIELKVELPGINSVSLCDLSVSEDDLLIEVSEKYRLHLNLPKLIDTEMTTAKFIKEKSTLIITMPLV [A117V] |
